This passage reports Km results from paper PMC9654404, “Functional Characterization and Screening of Promiscuous Kinases and Isopentenyl Phosphate Kinases for the Synthesis of DMAPP via a One-Pot Enzymatic Cascade” (International Journal of Molecular Sciences, 2022).

Substrate in data set [1]: CC(C)=CCO
Put plainly: purified protein. As to conditions: ATP co-substrate, 2 mM MgCl2, 50 mM buffer, optimal conditions (optimum pH 7.5, 30 °C), apparent Km, 30.0 °C.

Substrate in data set [2]: CC(C)=CCOP(=O)(O)O
The data set can be described thus: purified protein. Conditions: ATP co-substrate, 2 mM MgCl2, 50 mM buffer, DMAP made enzymatically with SfPK, apparent Km.

Substrate in data set [3]: CC(C)=CCO
The data set can be described thus: ADP formation, ADP colorimetric/fluorometric assay kit, Michaelis-Menten fit. Conditions: ATP co-substrate, 2 mM MgCl2, 50 mM buffer, optimal conditions (optimum pH 5.5, 50 °C), apparent Km. It is filed as biochemical, Escherichia coli.

Substrate in data set [4]: CC(C)=CCO
The data set is described as above. Conditions: ATP co-substrate, 2 mM MgCl2, 50 mM buffer, optimal conditions (optimum pH 9.0, 55 °C), apparent Km. It is filed as biochemical, Shigella flexneri.

B1: ScPK (Saccharomyces cerevisiae promiscuous kinase) (Saccharomyces cerevisiae S288C) (protein)
chain: MVQESRPGSVRSYSVGYQARSRSSSQRRHSLTRQRSSQRLIRTISIESDVSNITDDDDLRAVNEGVAGVQLDVSETANKGPRRASATDVTDSLGSTSSEYIEIPFVKETLDASLPSDYLKQDILNLIQSLKISKWYNNKKIQPVAQDMNLVKISGAMTNAIFKVEYPKLPSLLLRIYGPNIDNIIDREYELQILARLSLKNIGPSLYGCFVNGRFEQFLENSKTLTKDDIRNWKNSQRIARRMKELHVGVPLLSSERKNGSACWQKINQWLRTIEKVDQWVGDPKNIENSLLCENWSKFMDIVDRYHKWLISQEQGIEQVNKNLIFCHNDAQYGNLLFTAPVMNTPSLYTAPSSTSLTSQSSSLFPSSSNVIVDDIINPPKQEQSQDSKLVVIDFEYAGANPAAYDLANHLSEWMYDYNNAKAPHQCHADRYPDKEQVLNFLYSYVSHLRGGAKEPIDEEVQRLYKSIIQWRPTVQLFWSLWAILQSGKLEKKEASTAITREEIGPNGKKYIIKTEPESPEEDFVENDDEPEAGVSIDTFDYMAYGRDKIAVFWGDLIGLGIITEEECKNFSSFKFLDTSYL
For the protein B1, in the data set “purified protein [1]”, the Michaelis constant (Km) (commonly the concentration of substrate that gives half-maximal velocity) amounted to 1250 µM.

B2: MtIPK (Methanolobus tindarius isopentenyl phosphate kinase) (Methanolobus tindarius DSM 2278) (protein)
chain: MDNNNITILKIGGSVITDKSADDGTARLSEIERIAAEISGFEGKLIIVHGAGSFGHPQVKRFGLTGKFDHEGSIITHMSVRKLNTMVVETLNSAGINALPVHPMACAISSNSRIKSMFREQIEEMLANGFVPVLHGDMVMDTDLGTSVLSGDQIVPYLAIQMKASRIGIGSAEEGVLDDKGGVIPLINNENFDEIKAYLSGSANTDVTGGMLGKVLELLELSEQSNSTSYIFNAGNTGNISDFLSGKNIGTAIGAGTI
Regarding B2, the Km in the data set “purified protein [2]” (optimal conditions (optimum pH 7.5, 35 °C), 35.0 °C) was found to be 65 µM.

B3: MthIPK (Methanothermobacter thermautotrophicus isopentenyl phosphate kinase) (Methanothermobacter thermautotrophicus str. Delta H) (protein)
chain: MIILKLGGSVITRKDSEEPAIDRDNLERIASEIGNASPSSLMIVHGAGSFGHPFAGEYRIGSEIENEEDLRRRRFGFALTQNWVKKLNSHVCDALLAEGIPAVSMQPSAFIRAHAGRISHADISLIRSYLEEGMVPVVYGDVVLDSDRRLKFSVISGDQLINHFSLRLMPERVILGTDVDGVYTRNPKKHPDARLLDVIGSLDDLESLDGTLNTDVTGGMVGKIRELLLLAEKGVESEIINAAVPGNIERALLGEEVRGTRITGKH
On to B3, for which the Km in “purified protein [2]” (optimal conditions (optimum pH 7.5, 30 °C), 30.0 °C) came to 116 µM.

B4: EcPK (Escherichia coli promiscuous kinase) (Escherichia coli K-12) (protein)
chain: MQVDLLGSAQSAHALHLFHQHSPLVHCMTNDVVQTFTANTLLALGASPAMVIETEEASQFAAIASALLINVGTLTQPRAQAMRAAVEQAKSSQTPWTLDPVAVGALDYRRHFCHELLSFKPAAIRGNASEIMALAGIANGGRGVDTTDAAANAIPAAQTLARETGAIVVVTGEMDYVTDGHRIIGIHGGDPLMTKVVGTGCALSAVVAACCALPGDTLENVASACHWMKQAGERAVARSEGPGSFVPHFLDALWQLTQEVQA
As to B4, in data set [3], the Km was 930 µM.

B5: SfPK (Shigella flexneri promiscuous kinase) (Shigella flexneri) (protein)
chain: SIPPGNDVTTKPDLYYLTNDNAIDSLALLPPPPQIGSIAFLNDQAMYEKGRLLRNTERGKLAAEDANLSSGGVANVFSAAFGSPITAKDSPELHKLLTNMIEDAGDLATRSAKEYYMRIRPFAFYGVSTCNTKEQDTLSRNGSYPSGHTSIGWATALVLSEINPARQDTILKRGYELGDSRVICGYHWQSDVDAARIVGSAIVATLHSNPVFQAQLQKAKDEFANNQKK
B5: the Km in data set [4] was determined as 16 µM.
